Starred links: 1 amine or outer side, 2 acyl side, 3 side chain; linkers in the order of their positions; H or OH if unused. Non-standard residues stand in square brackets, D forms with d. Groups on a side chain read outwards from the residue. Primed or numbered codes have the meaning given here. No end group written: not given here. *: point of attachment. γGlu = O=C(O)[C@H](CCC(=O)[*:2])N[*:1]; Stearoyl = CCCCCCCCCCCCCCCCCC(=O)*; αMeF = C[C@](N)(Cc1ccccc1)C(=O)O; αMeK = C[C@](N)(CCCCN)C(=O)O; Lauroyl = CCCCCCCCCCCC(=O)*; αMeS = C[C@](N)(CO)C(=O)O; PEG2′ = not defined here; Aib = CC(C)(N)C(=O)O; Ahx = NCCCCCC(=O)O
T1: glucose-dependent insulinotropic peptide (gastric inhibitory polypeptide) receptor (GIPR) (human, UniProt P48546 22-466)
T1 sequence (looked up): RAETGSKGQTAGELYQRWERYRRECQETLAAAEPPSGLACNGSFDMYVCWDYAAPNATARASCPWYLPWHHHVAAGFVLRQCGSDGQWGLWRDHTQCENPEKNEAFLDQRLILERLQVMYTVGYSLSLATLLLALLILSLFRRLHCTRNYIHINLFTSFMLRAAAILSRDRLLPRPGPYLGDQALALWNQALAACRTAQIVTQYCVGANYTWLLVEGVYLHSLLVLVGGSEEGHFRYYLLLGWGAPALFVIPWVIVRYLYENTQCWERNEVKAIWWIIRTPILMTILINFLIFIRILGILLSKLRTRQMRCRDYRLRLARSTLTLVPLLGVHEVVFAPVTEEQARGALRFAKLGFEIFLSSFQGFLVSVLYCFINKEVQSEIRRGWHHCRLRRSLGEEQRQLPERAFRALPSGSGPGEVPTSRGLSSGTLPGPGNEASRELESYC

T2: glucose-dependent insulinotropic peptide (gastric inhibitory polypeptide) receptor (GIPR), primary cAMP assay … (human, UniProt P48546 22-466)
T2 sequence (looked up): T1 sequence (looked up)

B1: SEQ ID NO 159 (peptide)
peptide: H[Aib]EGS[αMeF]TSDV[αMeS]S[αMeF]LEGEAAK([Ahx-Ahx-Stearoyl])E[αMeF]IA[αMeF]VV[αMeK]GG-NH2
modifications: N-terminus assumed
SMILES: CCCCCCCCCCCCCCCCCC(=O)NCCCCCC(=O)NCCCCCC(=O)NCCCC[C@H](NC(=O)[C@H](C)NC(=O)[C@H](C)NC(=O)[C@H](CCC(=O)O)NC(=O)CNC(=O)[C@H](CCC(=O)O)NC(=O)[C@H](CC(C)C)NC(=O)[C@](C)(Cc1ccccc1)NC(=O)[C@H](CO)NC(=O)[C@](C)(CO)NC(=O)[C@@H](NC(=O)[C@H](CC(=O)O)NC(=O)[C@H](CO)NC(=O)[C@@H](NC(=O)[C@](C)(Cc1ccccc1)NC(=O)[C@H](CO)NC(=O)CNC(=O)[C@H](CCC(=O)O)NC(=O)C(C)(C)NC(=O)[C@@H](N)Cc1c[nH]cn1)[C@@H](C)O)C(C)C)C(=O)N[C@@H](CCC(=O)O)C(=O)N[C@@](C)(Cc1ccccc1)C(=O)N[C@H](C(=O)N[C@@H](C)C(=O)N[C@@](C)(Cc1ccccc1)C(=O)N[C@H](C(=O)N[C@H](C(=O)N[C@@](C)(CCCCN)C(=O)NCC(=O)NCC(N)=O)C(C)C)C(C)C)[C@@H](C)CC
B2: SEQ ID NO 158 (peptide)
peptide: H[Aib]EGS[αMeF]TSDV[αMeS]S[αMeF]LEGEAAK([Ahx-Stearoyl])E[αMeF]IA[αMeF]VV[αMeK]GG-NH2
modifications: N-terminus assumed
SMILES: CCCCCCCCCCCCCCCCCC(=O)NCCCCCC(=O)NCCCC[C@H](NC(=O)[C@H](C)NC(=O)[C@H](C)NC(=O)[C@H](CCC(=O)O)NC(=O)CNC(=O)[C@H](CCC(=O)O)NC(=O)[C@H](CC(C)C)NC(=O)[C@](C)(Cc1ccccc1)NC(=O)[C@H](CO)NC(=O)[C@](C)(CO)NC(=O)[C@@H](NC(=O)[C@H](CC(=O)O)NC(=O)[C@H](CO)NC(=O)[C@@H](NC(=O)[C@](C)(Cc1ccccc1)NC(=O)[C@H](CO)NC(=O)CNC(=O)[C@H](CCC(=O)O)NC(=O)C(C)(C)NC(=O)[C@@H](N)Cc1c[nH]cn1)[C@@H](C)O)C(C)C)C(=O)N[C@@H](CCC(=O)O)C(=O)N[C@@](C)(Cc1ccccc1)C(=O)N[C@H](C(=O)N[C@@H](C)C(=O)N[C@@](C)(Cc1ccccc1)C(=O)N[C@H](C(=O)N[C@H](C(=O)N[C@@](C)(CCCCN)C(=O)NCC(=O)NCC(N)=O)C(C)C)C(C)C)[C@@H](C)CC
B3: SEQ ID NO 157 (peptide)
peptide: H[Aib]EGS[αMeF]TSDV[αMeS]S[αMeF]LEGEAAK([γGlu-γGlu-γGlu-Stearoyl])E[αMeF]IA[αMeF]VV[αMeK]GG-NH2
modifications: N-terminus assumed
SMILES: CCCCCCCCCCCCCCCCCC(=O)N[C@@H](CCC(=O)N[C@@H](CCC(=O)N[C@@H](CCC(=O)NCCCC[C@H](NC(=O)[C@H](C)NC(=O)[C@H](C)NC(=O)[C@H](CCC(=O)O)NC(=O)CNC(=O)[C@H](CCC(=O)O)NC(=O)[C@H](CC(C)C)NC(=O)[C@](C)(Cc1ccccc1)NC(=O)[C@H](CO)NC(=O)[C@](C)(CO)NC(=O)[C@@H](NC(=O)[C@H](CC(=O)O)NC(=O)[C@H](CO)NC(=O)[C@@H](NC(=O)[C@](C)(Cc1ccccc1)NC(=O)[C@H](CO)NC(=O)CNC(=O)[C@H](CCC(=O)O)NC(=O)C(C)(C)NC(=O)[C@@H](N)Cc1c[nH]cn1)[C@@H](C)O)C(C)C)C(=O)N[C@@H](CCC(=O)O)C(=O)N[C@@](C)(Cc1ccccc1)C(=O)N[C@H](C(=O)N[C@@H](C)C(=O)N[C@@](C)(Cc1ccccc1)C(=O)N[C@H](C(=O)N[C@H](C(=O)N[C@@](C)(CCCCN)C(=O)NCC(=O)NCC(N)=O)C(C)C)C(C)C)[C@@H](C)CC)C(=O)O)C(=O)O)C(=O)O
B4: SEQ ID NO 156 (peptide)
peptide: H[Aib]EGS[αMeF]TSDV[αMeS]S[αMeF]LEGEAAK([γGlu-γGlu-Stearoyl])E[αMeF]IA[αMeF]VV[αMeK]GG-NH2
modifications: N-terminus assumed
SMILES: CCCCCCCCCCCCCCCCCC(=O)N[C@@H](CCC(=O)N[C@@H](CCC(=O)NCCCC[C@H](NC(=O)[C@H](C)NC(=O)[C@H](C)NC(=O)[C@H](CCC(=O)O)NC(=O)CNC(=O)[C@H](CCC(=O)O)NC(=O)[C@H](CC(C)C)NC(=O)[C@](C)(Cc1ccccc1)NC(=O)[C@H](CO)NC(=O)[C@](C)(CO)NC(=O)[C@@H](NC(=O)[C@H](CC(=O)O)NC(=O)[C@H](CO)NC(=O)[C@@H](NC(=O)[C@](C)(Cc1ccccc1)NC(=O)[C@H](CO)NC(=O)CNC(=O)[C@H](CCC(=O)O)NC(=O)C(C)(C)NC(=O)[C@@H](N)Cc1c[nH]cn1)[C@@H](C)O)C(C)C)C(=O)N[C@@H](CCC(=O)O)C(=O)N[C@@](C)(Cc1ccccc1)C(=O)N[C@H](C(=O)N[C@@H](C)C(=O)N[C@@](C)(Cc1ccccc1)C(=O)N[C@H](C(=O)N[C@H](C(=O)N[C@@](C)(CCCCN)C(=O)NCC(=O)NCC(N)=O)C(C)C)C(C)C)[C@@H](C)CC)C(=O)O)C(=O)O
B5: SEQ ID NO 155 (peptide)
peptide: H[Aib]EGS[αMeF]TSDV[αMeS]S[αMeF]LEGEAAK([γGlu-Stearoyl])E[αMeF]IA[αMeF]VV[αMeK]GG-NH2
modifications: N-terminus assumed
SMILES: CCCCCCCCCCCCCCCCCC(=O)N[C@@H](CCC(=O)NCCCC[C@H](NC(=O)[C@H](C)NC(=O)[C@H](C)NC(=O)[C@H](CCC(=O)O)NC(=O)CNC(=O)[C@H](CCC(=O)O)NC(=O)[C@H](CC(C)C)NC(=O)[C@](C)(Cc1ccccc1)NC(=O)[C@H](CO)NC(=O)[C@](C)(CO)NC(=O)[C@@H](NC(=O)[C@H](CC(=O)O)NC(=O)[C@H](CO)NC(=O)[C@@H](NC(=O)[C@](C)(Cc1ccccc1)NC(=O)[C@H](CO)NC(=O)CNC(=O)[C@H](CCC(=O)O)NC(=O)C(C)(C)NC(=O)[C@@H](N)Cc1c[nH]cn1)[C@@H](C)O)C(C)C)C(=O)N[C@@H](CCC(=O)O)C(=O)N[C@@](C)(Cc1ccccc1)C(=O)N[C@H](C(=O)N[C@@H](C)C(=O)N[C@@](C)(Cc1ccccc1)C(=O)N[C@H](C(=O)N[C@H](C(=O)N[C@@](C)(CCCCN)C(=O)NCC(=O)NCC(N)=O)C(C)C)C(C)C)[C@@H](C)CC)C(=O)O

target: T1, glucose-dependent insulinotropic …; assay: cell-based or functional assay

Primary assay EC50 (cAMP), GIP-R, first run	Primary assay EC50 (cAMP), GIP-R, second run	Binder
27 nM	27 nM	B1
26 nM	26 nM	H[Aib]EGS[αMeF]TSDV[αMeS]S[αMeF]LEGEAAK([PEG2′-PEG2′-PEG2′-Stearoyl])E[αMeF]IA[αMeF]VV[αMeK]GG-NH2 [SEQ ID NO 154]
28 nM	28 nM	B2
26 nM	26 nM	B3
27 nM	27 nM	H[Aib]EGS[αMeF]TSDV[αMeS]S[αMeF]LEGEAAK([PEG2′-PEG2′-Stearoyl])E[αMeF]IA[αMeF]VV[αMeK]GG-NH2 [SEQ ID NO 153]
27 nM	27 nM	B4
28 nM	28 nM	B5

target: glucagon receptor (GCGR) (human, UniProt P47871 26-477); assay: cell-based or functional assay
Sequence (P47871 26-477): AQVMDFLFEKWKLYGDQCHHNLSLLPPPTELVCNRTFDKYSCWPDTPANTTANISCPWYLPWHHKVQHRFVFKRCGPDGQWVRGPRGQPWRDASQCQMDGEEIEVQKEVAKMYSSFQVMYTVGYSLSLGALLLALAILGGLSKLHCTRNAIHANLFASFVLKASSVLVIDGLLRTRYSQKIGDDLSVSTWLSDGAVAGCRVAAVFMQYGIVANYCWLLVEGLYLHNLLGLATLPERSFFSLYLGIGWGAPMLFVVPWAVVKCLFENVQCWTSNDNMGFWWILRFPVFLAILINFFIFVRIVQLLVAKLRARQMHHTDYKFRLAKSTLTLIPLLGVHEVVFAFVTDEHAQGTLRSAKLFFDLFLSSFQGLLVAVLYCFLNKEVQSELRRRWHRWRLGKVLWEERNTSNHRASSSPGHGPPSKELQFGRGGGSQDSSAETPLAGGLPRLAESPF

Primary assay EC50 (cAMP), Gluc-R, first run	Primary assay EC50 (cAMP), Gluc-R, second run	Binder
27 nM	27 nM	B1
26 nM	26 nM	H[Aib]EGS[αMeF]TSDV[αMeS]S[αMeF]LEGEAAK([PEG2′-PEG2′-PEG2′-Stearoyl])E[αMeF]IA[αMeF]VV[αMeK]GG-NH2 [SEQ ID NO 154]
28 nM	28 nM	B2
26 nM	26 nM	B3
27 nM	27 nM	H[Aib]EGS[αMeF]TSDV[αMeS]S[αMeF]LEGEAAK([PEG2′-PEG2′-Stearoyl])E[αMeF]IA[αMeF]VV[αMeK]GG-NH2 [SEQ ID NO 153]
27 nM	27 nM	B4
28 nM	28 nM	B5

target: GLP-1 receptor (GLP-1R) (human, UniProt P43220 24-463); assay: cell-based or functional assay

Primary assay EC50 (cAMP), GLP-1R n1	Primary assay EC50 (cAMP), GLP-1R n2	Primary assay EC50 (cAMP), Mean pM GLP-1R	Binder
0.28 nM	0.23 nM	254 pM	B1
0.0028 nM	0.0023 nM	2.5 pM	H[Aib]EGS[αMeF]TSDV[αMeS]S[αMeF]LEGEAAK([PEG2′-PEG2′-PEG2′-Stearoyl])E[αMeF]IA[αMeF]VV[αMeK]GG-NH2 [SEQ ID NO 154]
0.14 nM	0.16 nM	148 pM	B2
0.24 nM	0.22 nM	227 pM	B3
0.0079 nM	0.005 nM	6.4 pM	H[Aib]EGS[αMeF]TSDV[αMeS]S[αMeF]LEGEAAK([PEG2′-PEG2′-Stearoyl])E[αMeF]IA[αMeF]VV[αMeK]GG-NH2 [SEQ ID NO 153]
0.11 nM	0.1 nM	105 pM	B4
0.29 nM	0.19 nM	238 pM	B5

target: glucagon receptor (GCGR), primary cAMP assay cell line (human, UniProt P47871 26-477); assay: cell-based or functional assay
Sequence (P47871 26-477): as above

cAMP Primary assay EC50, n1	cAMP Primary assay EC50, n2	Binder
19.9 nM	19.9 nM	H[Aib]EGS[αMeF]TSDV[αMeS]SYK([PEG2′-PEG2′-γGlu-Lauroyl])EGEAA[αMeK]K([PEG2′-PEG2′-γGlu-Lauroyl])FIAFK([PEG2′-PEG2′-γGlu-Lauroyl])VEGG-NH2 [SEQ ID NO: 486]

target: T2, glucose-dependent insulinotropic …; assay: cell-based or functional assay

cAMP Primary assay EC50, n1	cAMP Primary assay EC50, n2	Binder
19.9 nM	19.9 nM	H[Aib]EGS[αMeF]TSDV[αMeS]SYK([PEG2′-PEG2′-γGlu-Lauroyl])EGEAA[αMeK]K([PEG2′-PEG2′-γGlu-Lauroyl])FIAFK([PEG2′-PEG2′-γGlu-Lauroyl])VEGG-NH2 [SEQ ID NO: 486]

target: GLP-1 receptor (GLP-1R), primary cAMP assay cell line (human, UniProt P43220 24-463); assay: cell-based or functional assay

cAMP Primary assay EC50, Mean pM GLP-1R	cAMP Primary assay EC50, n1	cAMP Primary assay EC50, n2	Binder
212 pM	0.165 nM	0.259 nM	H[Aib]EGS[αMeF]TSDV[αMeS]SYK([PEG2′-PEG2′-γGlu-Lauroyl])EGEAA[αMeK]K([PEG2′-PEG2′-γGlu-Lauroyl])FIAFK([PEG2′-PEG2′-γGlu-Lauroyl])VEGG-NH2 [SEQ ID NO: 486]
